Measurements published in patent publication US20070212365A1.

Key:
[1] = molecular target: synthetic peptide … (antigen from mpf00920 polypeptide); assay: ELISA on the antigen; pre-immune serum at 2000-fold dilution
[2] = molecular target: synthetic peptide … (antigen from mpf00920 polypeptide); assay: ELISA on the antigen; pre-immune serum at 1000-fold dilution
[3] = molecular target: synthetic peptide … (antigen from mpf00920 polypeptide); assay: ELISA on the antigen; pre-immune serum at 8000-fold dilution
[4] = molecular target: synthetic peptide … (antigen from mpf00920 polypeptide); assay: ELISA on the antigen; pre-immune serum at 16000-fold dilution
[5] = molecular target: synthetic peptide … (antigen from mpf00920 polypeptide); assay: ELISA on the antigen; pre-immune serum at 4000-fold dilution

absorbance (490 nm) (absorbance (490 nm)) [1]: 0.101
absorbance (490 nm) (absorbance (490 nm)) [2]: 0.171
absorbance (490 nm) (absorbance (490 nm)) [3]: 0.084
absorbance (490 nm) (absorbance (490 nm)) [4]: 0.076
absorbance (490 nm) (absorbance (490 nm)) [5]: 0.089
Substance: control serum (rabbit serum without immunization)
